Data taken from article PMC11388335.

B1: SDS22^TAMRA (GGG-SDS22 labeled by sortase with a TAMRA Strep-tag peptide) (natural protein)
chain: MAAERGAGQQQSQEMMEVDRRVESEESGDEEGKKHSSGIVADLSEQSLKDGEERGEEDPEEEHELPVDMETINLDRDAEDVDLNHYRIGKIEGFEVLKKVKTLCLRQNLIKCIENLEELQSLRELDLYDNQIKKIENLEALTELEILDISFNLLRNIEGVDKLTRLKKLFLVNNKISKIENLSNLHQLQMLELGSNRIRAIENIDTLTNLESLFLGKNKITKLQNLDALTNLTVLSMQSNRLTKIEGLQNLVNLRELYLSHNGIEVIEGLENNNKLTMLDIASNRIKKIENISHLTELQEFWMNDNLLESWSDLDELKGARSLETVYLERNPLQKDPQYRRKVMLALPSVRQIDATFVRF
modifications: TAMRA on the ligated peptide (TAMRA)-…

Key:
[1] = biological target: PP1^Clover (PP1γ catalytic subunit fused to the FRET donor Clover) (human) (UniProt P36873); assay: FRET or BRET; binary complexes SDS22^TAMRA-PP1^Clover (SP) or PP1^Clover-I3^TAMRA (PI) lacking the other subunit, incubated with p97, p37, ATP and NIPP1 as in a3
[2] = biological target: PP1^Clover (PP1γ catalytic subunit fused to the FRET donor Clover) (human) (UniProt P36873); assay: FRET or BRET; ternary complexes SDS22^TAMRA-PP1^Clover-I3 or SDS22-PP1^Clover-I3^TAMRA (160 nM); FRET while the complex is formed, lost with p97 (160 nM), p37 (480 nM), ATP (2 mM) and unlabeled NIPP1 (240 nM); p97 buffer + 2% BSA + 1 mM DTT, 30 °C
[3] = biological target: PP1^Clover (PP1γ catalytic subunit fused to the FRET donor Clover) (human) (UniProt P36873); assay: FRET or BRET; in vitro subunit exchange: SDS22-PP1^Clover-I3 (160 nM) with p97 (160 nM), p37 (480 nM), ATP (2 mM) and NIPP1^TAMRA (240 nM); p97 buffer + 2% BSA + 1 mM DTT, 30 °C; rise of acceptor/donor ratio
[4] = biological target: His-PP1γ^Clover (PP1 of the binary SP and NP complexes) (human) (UniProt P36873); assay: FRET or BRET; binary complexes SDS22^TAMRA-PP1^Clover (SP) or PP1^Clover-I3^TAMRA (PI) lacking the other subunit, incubated with p97, p37, ATP and NIPP1 as in a3

rate constant of p97-p37-mediated dissociation, binary complex without SDS22 (exponential fit of FRET) [1]	rate constant of p97-p37-mediated dissociation (exponential fit of FRET) [2]	rate constant of p97-p37-mediated dissociation, ternary complex (exponential fit of FRET) [2]	rate constant of NIPP1 association after p97-p37-mediated release of PP1 (exponential fit of FRET) [3]	rate constant of dissociation with p97-p37, binary complex without I3 (exponential fit of FRET) [4]	Molecule
0.0734 min⁻¹	0.69 min⁻¹	0.644 min⁻¹	–	–	I3^TAMRA (His-I3-LPETGGG labeled by sortase with a TAMRA Strep-tag peptide) (from UniProt O60927 1-126) (natural protein)
–	–	–	0.33 min⁻¹	–	NIPP1^TAMRA (His-NIPP1-LPETGGG labeled by sortase with a TAMRA Strep-tag peptide) (from UniProt Q12972 1-351) (natural protein)
–	0.64 min⁻¹	0.714 min⁻¹	–	0.0003 min⁻¹	B1
